This note sets out measurements from patent US20160108110A1 (Novartis, published 2016).

Experiment [1] addresses T1, Human ANGPTL3(17-460)-FLAG-His-Avi (human, UniProt Q9Y5C1 17-460, biotin on the C-terminal Avi tag).
T1 construct: also called full length human ANGPTL3; hANGPTL3
T1 sequence: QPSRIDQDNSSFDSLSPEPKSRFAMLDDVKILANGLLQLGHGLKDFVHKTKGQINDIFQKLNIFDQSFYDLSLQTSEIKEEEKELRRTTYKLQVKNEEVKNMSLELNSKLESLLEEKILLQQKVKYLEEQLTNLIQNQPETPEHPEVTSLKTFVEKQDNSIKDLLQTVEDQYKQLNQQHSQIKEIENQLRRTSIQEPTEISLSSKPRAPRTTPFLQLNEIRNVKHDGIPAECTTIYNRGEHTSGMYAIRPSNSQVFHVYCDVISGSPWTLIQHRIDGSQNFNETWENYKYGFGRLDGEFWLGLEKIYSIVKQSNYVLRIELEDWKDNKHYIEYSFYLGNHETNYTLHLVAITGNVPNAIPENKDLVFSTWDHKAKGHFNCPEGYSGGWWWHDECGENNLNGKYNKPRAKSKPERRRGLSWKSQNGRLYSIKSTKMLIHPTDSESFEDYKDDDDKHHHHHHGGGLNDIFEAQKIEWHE
The experiment in a line: direct ELISA on streptavidin-coated MSD plate: biotinylated antigen immobilised at 1 nM, antibody at 1 nM, detection with Sulfo-tagged goat anti-human IgG. The protocol:
Direct ELISA assays were conducted to characterize antibody binding specificity of selected antibodies of the invention. The assay was performed as follows. A 384-well streptavidin-coated Meso Scale Discovery (MSD) plate was blocked by incubating the plate with 50 μL Blocking Buffer (PBS, pH 7.4, 5% w/v bovine serum albumin) per well at 22° C. for 1 hour with constant shaking (600 rpm). The blocked MSD plate was then washed 3 times with Wash Buffer (PBS, pH 7.4 and 0.05% v/v Tween-20) using a plate washer (BioTek). Following washing, biotinylated human ANGPTL4 proteins diluted in Assay Buffer (PBS, pH 7.4 without CaCl₂ or MgCl₂, 0.5% w/v fatty acid-free bovine serum albumin and 0.02% v/v Tween-20) were immobilized on the surface by incubation at 1 nM concentration (15 μL per well) at 22° C. for one hour: full length human ANGPTL4 (hANGPTL4), human ANGPTL4 coiled-coil domain (hANGPTL4-CCD) and full length human ANGPTL3 (hANGPTL3). The plate was then washed 3 times as described earlier. Antibody diluted to 1 nM concentration in Assay Buffer was then applied to the MSD plate […], and the plate was incubated for 1 hour at 22° C. with constant shaking (600 rpm). Bound antibodies were detected by adding 15 μL per well of a 1:500 dilution of Sulfo-tagged goat anti-human IgG. The plate was then incubated for one hour with constant shaking (600 rpm). The plate was washed 3 times, and then 15 μL/well of 1×MSD read buffer T was added and the plate was developed using a Sector Imager 6000 (Meso Scale Discovery). The data were transferred to Microsoft Excel for analysis and plotted using GraphPad Prism v6. […] An ANGPTL3-specific reference antibody was used as a positive control for the ANGPTL3 binding assay (FIG. 2).
A general note: An ELISA detects its analyte on a solid surface through an enzyme-linked reagent.

Experiment [2] deals with T2, ANGPTL4-derived peptide P22 (human).
T2 peptide: LPLAPESRVDPEVLH
Kind of experiment: peptide array, immobilised linear 15-mers. The protocol:
(§1) The ability of selected antibodies of invention, namely MOR022765 and MOR022770, to bind to linear 15-amino-acid peptides derived from the N-terminal coiled coil domain of human ANGPTL4 was tested. The peptides were immobilized on a glass surface, and the ability of MOR022765 and MOR022770 to bind to the immobilized peptides was evaluated using experimental methods optimized for linear peptide epitope mapping at JPT Peptide Technologies (Berlin, Germany).

For experiment [3], the target named is T3, ANGPTL4-derived peptide P34 (human).
T3 peptide: QQQRHLEKQHLRIQH
The experiment in a line: peptide array, immobilised linear 15-mers. The protocol: as §1

In experiment [4] the target is T4, ANGPTL4-derived peptide P32 (human).
T4 peptide: LFHKVAQQQRHLEKQ
The experiment in a line: peptide array, immobilised linear 15-mers. The protocol:
as §1

Experiment [5] addresses T5, ANGPTL4-derived peptide P11 (human).
T5 peptide: REHAERTRSQLSALE
Kind of experiment: peptide array, immobilised linear 15-mers. The protocol:
as §1

Experiment [6] concerns the target T6, ANGPTL4-derived peptide P6 (human).
T6 peptide: MNVLAHGLLQLGQGL
Kind of experiment: peptide array, immobilised linear 15-mers. Here is the method:
as §1

For experiment [7], the target named is T7, ANGPTL4-derived peptide P10 (human).
T7 peptide: QGLREHAERTRSQLS
Kind of experiment: peptide array, immobilised linear 15-mers. The protocol:
as §1

Experiment [8] addresses T8, ANGPTL4-derived peptide P31 (human).
T8 peptide: IQQLFHKVAQQQRHL
The experiment in a line: peptide array, immobilised linear 15-mers. Here is the method: as §1

Experiment [9] has as its target T9, ANGPTL4-derived peptide P41 (human).
T9 peptide: LLDHKHLDHEVAKPA
The experiment in a line: peptide array, immobilised linear 15-mers. Here is the method: as §1

The target of experiment [10] is T10, ANGPTL4-derived peptide P9 (human).
T10 peptide: QLGQGLREHAERTRS
The experiment in a line: peptide array, immobilised linear 15-mers. Here is the method:
as §1

For experiment [11], the target named is T11, ANGPTL4-derived peptide P8 (human).
T11 peptide: GLLQLGQGLREHAER
Kind of experiment: peptide array, immobilised linear 15-mers. The protocol: as §1

Experiment [12] has as its target T12, ANGPTL4-derived peptide P3 (human).
T12 peptide: SPRFASWDEMNVLAH
Kind of experiment: peptide array, immobilised linear 15-mers. The protocol: as §1

Experiment [13] deals with T13, ANGPTL4-derived peptide P23 (human).
T13 peptide: APESRVDPEVLHSLQ
The experiment in a line: peptide array, immobilised linear 15-mers. Here is the method: as §1

The target of experiment [14] is T14, ANGPTL4-derived peptide P19 (human).
T14 construct: printed with S where human ANGPTL4 has C
T14 peptide: SQGTEGSTDLPLAPE
Kind of experiment: peptide array, immobilised linear 15-mers. The protocol: as §1

The target in experiment [15] is T15, Human ANGPTL4(26-406)-FLAG-His6-Avi (human, UniProt Q9BY76 24-406, biotin on the C-terminal Avi tag in the biotinylated preparations (immobilised form in SET, ELISA and Octet)).
T15 sequence: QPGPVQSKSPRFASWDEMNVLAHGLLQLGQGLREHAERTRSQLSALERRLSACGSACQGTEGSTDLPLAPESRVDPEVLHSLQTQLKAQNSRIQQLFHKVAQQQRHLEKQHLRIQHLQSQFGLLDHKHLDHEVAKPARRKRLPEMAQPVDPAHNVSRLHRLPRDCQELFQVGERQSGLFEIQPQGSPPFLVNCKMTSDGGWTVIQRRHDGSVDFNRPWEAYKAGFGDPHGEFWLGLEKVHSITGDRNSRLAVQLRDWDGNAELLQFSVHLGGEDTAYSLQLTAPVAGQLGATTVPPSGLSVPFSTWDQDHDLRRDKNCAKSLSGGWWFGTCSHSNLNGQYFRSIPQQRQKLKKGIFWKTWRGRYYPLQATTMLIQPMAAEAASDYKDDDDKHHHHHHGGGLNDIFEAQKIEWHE
The experiment in a line: cell-based or functional assay.

B1: MOR021792 (antibody, human IgG1, lambda, V domains shown)
VH: QVQLLESGGGLVQPGGSLRLSCAASGFTFSDYAMDWVRQAPGKGLEWVSKISYDGSYTYYADSVKGRFTISRDNSKNTLYLQMNSLRAEDTAVYYCARPSMSYYIIPAGFDVWGQGTLVTVSS
VL: DIELTQPPSVSVSPGQTASITCSGDALGVKRASWYQQKPGQAPVLVIYKDNNRPSGIPERFSGSNSGNTATLTISGTQAEDEADYYCSVRTWSMNLYVFGGGTKLTVLG
For B1, the binding result in experiment [1] is “no binding (tested: 1 nM)”.

B2: MOR022765 (antibody, human IgG1, lambda, V domains shown)
VH: EVQLVQSGAEVKKPGESLKISCKGSGYSFSTYWISWVRQMPGKGLEWMGIIDPSSSDTRYSPSFQGQVTISADKSISTAYLQWSSLKASDTAMYYCARVYGYVYMDVWGQGTLVTVSS
VL: SYELTQPLSVSVALGQTARITCSGDNLGKKYAYWYQQKPGQAPVLVIYDKTKRPSGIPERFSGSNSGNTATLTISRAQAGDEADYYCASYDWYSSSYVFGGGTKLTVLG
notes: human IgG1
With B2, the binding result in [2], in experiment [3], in [4], in experiment [5], in [6] and in experiment [7] was “no binding” in each case. The binding result in experiment [8], in [9], in experiment [10], in [11], in experiment [12] and in [13] was “no binding” in each case. Further, in [14], the binding result is “no binding”.

B3: MOR021798 (antibody, human IgG1, lambda, V domains shown)
VH: QVQLLESGGGLVQPGGSLRLSCAASGFTFSDYALHWVRQAPGKGLEWVSRISYMGSSTYYADSVKGRFTISRDNSKNTLYLQMNSLRAEDTAVYYCAREHYYSSPMGGVAVDNWGQGTLVTVSS
VL: DIVLTQPPSVSGAPGQRVTISCSGSSSNIGYNTVSWYQQLPGTAPKLLIYSNNIRPSGVPDRFSGSKSGTSASLAITGLQAEDEADYYCSSWDFLIKSLVFGGGTKLTVLG
notes: human IgG1
B3: the binding result in [1] is recorded as “no binding (tested: 1 nM)”. Besides, the “EC50 (read off the curve) [1(C]” value in experiment [15] was about 3 nM.
